Substrate: O=c1oc(/C=C/c2ccc(O)c(O)c2)cc(O)c1O
Test: bioluminescence, initial light intensity, Michaelis-Menten fit
Type: biochemical, Neonothopanus nambi
Settings: 50 nM enzyme, 200 mM Na-phosphate pH 8.0, 500 mM Na2SO4, 0.1% DDM, room temperature, luciferin 2 nM to 50 μM

B1: recombinant N. nambi luciferase (nnLuz) (Neonothopanus nambi) (protein)
chain: MRINISLSSLFERLSKLSSRSIAITCGVVLASAIAFPIIRRDYQTFLEVGPSYAPQNFRGYIIVCVLSLFRQEQKGLAIYDRLPEKRRWLADLPFREGTRPSITSHIIQRQRTQLVDQEFATRELIDKVIPRVQARHTDKTFLSTSKFEFHAKAIFLLPSIPINDPLNIPSHDTVRRTKREIAHMHDYHDCTLHLALAAQDGKEVLKKGWGQRHPLAGPGVPGPPTEWTFLYAPRNEEEARVVEMIVEASIGYMTNDPAGKIVENAK
notes: expressed in Pichia pastoris GS115; membrane protein solubilized and purified in DDM
For B1, which Km is on record?
Its Km is 1.09 ± 0.06 µM.

Source: publication PMC7946651, “The Recombinant Luciferase of the Fungus Neonothopanus nambi: Obtaining and Properties” (Doklady. Biochemistry and Biophysics, 2021)
